Assay results: paper PMC2529288

Biological target: Secretory leukoproteinase inhibitor (human (endogenous in A549)) (UniProt P03973)
Sequence of UniProt P03973 (P03973 26-132): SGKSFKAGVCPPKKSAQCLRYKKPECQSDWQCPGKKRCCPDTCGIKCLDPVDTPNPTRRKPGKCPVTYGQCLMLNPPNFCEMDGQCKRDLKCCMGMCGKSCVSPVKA

SLPI concentration (ELISA) in the lower Transwell compartment of A549 cells, 10 min after 10 nM NE was added to the lower compartment only, as % of control wells: 8.6 % of control
SLPI concentration (ELISA) in the upper Transwell compartment of A549 cells, 10 min after 10 nM NE was added to the upper compartment only, as % of control wells: 10.6 % of control
Substance: neutrophil elastase (from UniProt P08246 30-267) (enzyme)
